Source: patent publication US20120027773A1 (AVEO PHARMACEUTICALS, published 2012)

B1: 29B06 (antibody, mouse IgG1, kappa)
heavy: EVQLQESGPSLVKPSQTLSLTCSVTGDSITSGYWNWIRKFPGNKLEYMGYISYSGKTYYNPSLKSRISITRDTSKNHYYLQLISVTAEDTATYYCARSKYDYAMDYWGQGTSVTVSSAKTTPPSVYPLAPGSAAQTNSMVTLGCLVKGYFPEPVTVTWNSGSLSSGVHTFPAVLQSDLYTLSSSVTVPSSTWPSETVTCNVAHPASSTKVDKKIVPRDCGCKPCICTVPEVSSVFIFPPKPKDVLTITLTPKVTCVVVDISKDDPEVQFSWFVDDVEVHTAQTQPREEQFNSTFRSVSELPIMHQDWLNGKEFKCRVNSAAFPAPIEKTISKTKGRPKAPQVYTIPPPKEQMAKDKVSLTCMITDFFPEDITVEWQWNGQPAENYKNTQPIMDTDGSYFVYSKLNVQKSNWEAGNTFTCSVLHEGLHNHHTEKSLSHSPGK
light: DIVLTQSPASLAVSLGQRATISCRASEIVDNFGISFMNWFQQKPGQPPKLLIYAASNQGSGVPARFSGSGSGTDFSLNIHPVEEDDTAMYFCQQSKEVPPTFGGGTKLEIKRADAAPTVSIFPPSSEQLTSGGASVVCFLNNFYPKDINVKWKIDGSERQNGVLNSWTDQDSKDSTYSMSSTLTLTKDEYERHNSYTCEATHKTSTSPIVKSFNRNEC
notes: Murine hybridoma monoclonal, IgG1/kappa; also called mu29B06; antibody 29B06
B2: 07F01 (antibody, mouse IgG1, kappa, V domains shown)
VH: EVKLLESGGGLVQPGGSLKLSCAASGFDFSRHWMSWVRLAPGKGLEWIAEINPDSRTINYTPSLKEKFIISRDNAKNSLFLQMNRVRSEDTALYYCARRVRIHYYGAMDCWGQGTSVTVSS
VL: DIVLTQSQKIVSTSVGARVSVTCKASQNVGSSLVWYQQKPGQSPKTLIYSASFRYSGVPDRFTGSGSGTDFTLTISNVQSEDLADYFCQQYNNYPLTFGAGTKLELKR
notes: Murine hybridoma monoclonal, IgG1/kappa; also called mu07F01; antibody 07F01

Target: T1, recombinant human RON SEMA and PSI domains (human, UniProt Q04912 25-571)
T1 construct: domain: SEMA+PSI; Commercial protein (R&D Systems); also called rhRON SEMA+PSI; hRON SEMA+PSI
Assay: ECL competition, MSP binding to coated hRON SEMA+PSI; competitor MSP; average
Method: The biochemical neutralization assay measures inhibition of MSP binding to hRON by antibodies in hybridoma supernatants, using electrochemiluminescence (ECL). MA2400 96-well high binding plates (Meso Scale Discovery) were coated with 25 μl of 0.42 μg/mL hRON SEMA+PSI (an N-terminal portion of the ECD of hRON; R&D Systems) in PBS for one hour at room temperature with agitation. The plates were washed four times with PBS+0.1% Tween-20 (PBST), and blocked with 150 μl of charcoal-stripped fetal bovine serum (FBS) (Gibco). The hybridoma supernatant were added and incubated for 45 minutes at room temperature. After incubation, 5 μl of MSP (3 μg/mL) in charcoal stripped FBS was added to each well, and incubated for 45 minutes. The plate was washed four times with PBST, and 25 μl of 1 μg/mL biotinylated anti-MSP antibody (R&D Systems) was added to the plates for one hour at room temperature with agitation. The plates were washed four times with PBST, and incubated with 25 μl of 1 μg/mL ST-streptavidin (Meso Scale Discovery) for one hour at room temperature with agitation. The plates were washed four times with PBST, and 150 μl read buffer (Meso Scale Discovery) was added to each well before the plates were analyzed on a Sector Imager 2400 (Meso Scale Discovery) instrument. Antibodies 07F01, 18H09 and 29B06 each blocked MSP binding to hRON SEMA+PSI in this neutralization assay.
Antibodies 07F01, 12B11, 17F06, 18H09, and 29B06 were tested for inhibition of MSP binding to hRON SEMA+PSI, as measured by electrochemiluminescence (ECL) assay as described in Example 3. The antibodies (concentration range: 0.006-10 μg/mL) were incubated for 45 minutes at room temperature.

| Binder | Maximum Neutralization (%) |
| --- | --- |
| B1 | 87.6% |
| B2 | 88.3% |
